Data: the supplement of paper PMC12042874
± gives the uncertainty stated by the source.

Assay: amyloid nucleation score (Sup35N fusion, yeast selection) (log enrichment); library NNK3; higher = more nucleation; inactive = no reads after selection
Method in brief: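 On medium lacking adenine and uracil, psi-negative yeast expressing peptides of 20 random codons fused to Sup35N were grown 7 days at 30°C after a 24-hour induction with 100 μM copper sulfate. Illumina sequencing of input and output plasmid inserts gave the reads, and sequences under 100 input reads were excluded. The nucleation score is the DiMSum log enrichment of output over input reads, centred on the mode score of non-aggregating sequences.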

| Substance | amyloid nucleation score |
| --- | --- |
| YDDVFFYSWVTFLRQLFDPL | inactive |
| YDGLSSAMGEHIRNNNCLLV | inactive |
| YDKVLRPMVSYYSR | inactive |
| YDMSDMNCRRIW | inactive |
| YDNVVYLIVGHYG | inactive |
| YEIFSVSLR | -0.221 ± 0.9 |
| YEKPCEG | inactive |
| YETYKYLYGFVML | inactive |
| YFFSVLG | inactive |
| YFFVSWFRCMGPILSFTRVV | inactive |
| YFGSV | inactive |
| YFIMSFSLQNFMGSPLNRLG | inactive |
| YFIRVILPFQLTLVVIWYKF | inactive |
| YFLDV | inactive |
| YFLGRVRK | inactive |
| YFLRREQLYNLRKGK | inactive |
| YFLYLFRSVQCMLCHALNFN | 0.586 ± 0.15 |
| YFNLSRIMLNELMCLVIIRQ | inactive |
| YFPGGTLDY | inactive |
| YFSRMVKVRSNI | inactive |
| YFWEASGFHFIRLVTTASTQ | inactive |
| YFYSHRYI | inactive |
| YGCKANSPLL | inactive |
| YGCRINLIDRYALKYCVTED | inactive |
| YGGFLKFSRYGIGRYIHLQL | inactive |

| Substance | amyloid nucleation score |
| --- | --- |
| YGKQVLWN | inactive |
| YGLFGCLTSVWACRGCYGVV | inactive |
| YGLSFHDLYGCCLRLGIGMD | 1.63 ± 0.081 |
| YGQGSGGIGRRVAGQDCNLI | inactive |
| YGRLCDALKGSWYCSIYHGS | 1.79 ± 0.074 |
| YGSIIV | inactive |
| YGSKWTLKVFWIMMCFDELP | inactive |
| YGYVLTSTVGVILVYWSYSC | inactive |
| YHCVRLFRVPMTISRGDAQK | -0.271 ± 0.59 |
| YHLLFIVKAYIGVILNFLRS | inactive |
| YIARCVVTSLVLNKTCMRIY | inactive |
| YICTNNLTYNSMMQIFSKIM | 0.394 ± 0.33 |
| YICVMWMYSCKLSLPMWHPR | inactive |
| YIEILE | inactive |
| YIETISPFLCGCYSIFSPMI | 2.8 ± 0.084 |
| YIEWLDFR | inactive |
| YIFDMSTGQDSMVY | inactive |
| YIFQICRFGIYYVRSVYTTY | inactive |
| YIGFGGDCSVSAFVTCQLGF | inactive |
| YIINARPYVVVTDGLKDETA | inactive |
| YINHSSSTA | inactive |
| YINLFGKWA | 1.53 ± 0.1 |
| YINLVFQNCAVDGRSSKGYW | 2.67 ± 0.081 |
| YIPVSTFM | -0.135 ± 0.6 |
| YISEWSLSP | 0.909 ± 0.13 |

| Substance | amyloid nucleation score |
| --- | --- |
| YISFFGGFANNGYCWWICAS | 1.81 ± 0.069 |
| YITVRR | -0.297 ± 1.1 |
| YIVNLGKFKCQNLMRSCRLK | 1.07 ± 0.12 |
| YKDRR | inactive |
| YKFIRFFSSMT | inactive |
| YKFLLFFFYSISAFGNDSCD | inactive |
| YKIRFSLYVEHSVVLYVQY | inactive |
| YKLKLIKEFCIGIRC | inactive |
| YKSNLLSYGALLISDFVLVR | -0.108 ± 0.63 |
| YKSSNRSFFGIMANQPRLGC | inactive |
| YLASEVYRV | inactive |
| YLCLWCVEQLMYCRPRRLEE | inactive |
| YLGCSINLGTEDIIYAESEH | inactive |
| YLGFFTAYA | inactive |
| YLIDVGL | inactive |
| YLLFMYFLLSSCCSLPALPM | 1.4 ± 0.12 |
| YLNISILFNCVWDKVFFRYH | inactive |
| YLNRLCLNTNISRAVRCY | inactive |
| YLNSDRSYEMDTFRFGYLLY | inactive |
| YLRDF | inactive |
| YLRGY | inactive |
| YLSSIW | inactive |
| YLTNNLFRFLEYR | inactive |
| YLTVCRGRNTEGYGWEVNS | inactive |
| YLVGCWNYESKN | 0.234 ± 0.25 |

| Substance | amyloid nucleation score |
| --- | --- |
| YLVWVFPEWPC | 1.39 ± 0.13 |
| YLYLWSFCMSMVGFSIYRES | inactive |
| YMAVKRSWSNSMTMIHLNSV | inactive |
| YMESVARNSLRVSDCNAK | 0.7 ± 0.14 |
| YMIDPYKEEVLPP | inactive |
| YMLCC | inactive |
| YMLMGMVLRDRDRT | 1.69 ± 0.088 |
| YMRDCYSNSGWNIYRSKRLS | inactive |
| YMSFIYGSKR | 1.78 ± 0.07 |
| YMSRKPV | inactive |
| YNCFTHSPWRKH | inactive |
| YNEHLQLAVWRYALTVGKVW | inactive |
| YNMFACGVCTLFKVGKANKF | 2.96 ± 0.074 |
| YNNCYRCEN | inactive |
| YNRLNRL | inactive |
| YNSRDDSIKFFFVRSCILTY | inactive |
| YNSSYFYMMCPFLSSFSPFS | 2.81 ± 0.067 |
| YNVTFQSPVTSWDNHLIMA | inactive |
| YPHLMK | 1.54 ± 0.12 |
| YPNMWLDEYRMVFAYYLPCG | inactive |
| YPWGEGNGYTCGV | inactive |
| YQFFDASLIAR | inactive |
| YQIDQSLCNWCYLGGSWFIA | 2.39 ± 0.072 |
| YQSGTLWCQCIWFKMRWRVH | inactive |
| YQVVVGNFCLLHSVCI | 0.124 ± 0.38 |

| Substance | amyloid nucleation score |
| --- | --- |
| YRDTICPYETAREDMNYLLG | inactive |
| YRESDKVTFWLYLSRVDDLD | 2.06 ± 0.083 |
| YRFFVKYMLLIYLINFNIFL | 0.057 ± 0.6 |
| YRFTRKDSPSSKVKMISNSW | inactive |
| YRHICKYCFGQPVGHH | -1.1 ± 1.9 |
| YRNMFQPRRNEAARQQLSST | inactive |
| YRPFWSA | inactive |
| YRRYWLSGRSFRADFIDNKT | inactive |
| YRSFSSKDVSKL | inactive |
| YRTARVSG | inactive |
| YRTDDERCDMTTVLYSYMEY | inactive |
| YRVSEELTLLY | inactive |
| YRWYQINSGSYLYLASRWCW | inactive |
| YRYMVRITCGCFHAVNDT | 1.19 ± 0.14 |
| YRYYCWNCCELGIDGTMWVA | -0.526 ± 0.45 |
| YSALNSYSWYVTPFYILYWF | 2.56 ± 0.084 |
| YSAVSTSVMCAE | inactive |
| YSCFFIPWRVGAYRTDNFRS | inactive |
| YSFAVPSNLLLLK | -0.302 ± 0.52 |
| YSGKYVCAVGF | inactive |
| YSGLGSIVTNGYSYIYGEVL | inactive |
| YSIIVSRNRNGRLRFRWSNG | -0.368 ± 0.8 |
